Paper doi:10.1101/2021.04.27.441718

T1: RbpB (Bacteroides thetaiotaomicron VPI-5482, UniProt Q8A6J4 1-100)
T1 sequence: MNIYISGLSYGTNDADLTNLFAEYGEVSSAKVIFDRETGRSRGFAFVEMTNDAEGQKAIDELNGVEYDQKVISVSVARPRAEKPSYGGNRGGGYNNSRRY


What was measured:
[1] = molecular target: T1, RbpB; assay: EMSA
[2] = molecular target: T1, RbpB; assay: EMSA; remark: listed apart in the source

Row | Binder | Kd [1] | binding result [2]
1 | GUAGGAUAGUAGGAUAGUAGGAUA (ssRNA) [Motif 1 x3] | 5.1 µM | 
2 | UCCUGUGCUCCUGUGCUCCUGUGC (ssRNA) [Motif 9 x3] |  | no binding
